System: IL2 signaling pathway (STAT5 phosphorylation) in mouse splenocytes
Experiment: Flow cytometry detection of pSTAT5 expression in T cells and NK cells after IL2 stimulation, IL2RB/IL2RG/IL15/IL15RA four-gene humanized mice
Format: cell-based
Settings: for pSTAT5 expression (CD4+ T cell) / pSTAT5 expression (CD8a+ cell) / pSTAT5 expression (NK1.1+ cell): splenocytes, 10 μg/mL IL2
Experimental: The IL2 and IL15 signaling pathways in IL2RB/IL2RG double-gene humanized mice were detected by flow cytometry. Specifically, three 6-week old female C57BL/6 wild-type mice (+/+), three IL2RB/IL2RG double-gene humanized heterozygous mice (H/+; H/+), and three IL2RB/IL2RG double-gene humanized homozygous mice (H/H; H/H) were selected. […] No primary antibody was added to the corresponding secondary antibody control groups.
The IL2 and IL15 signaling pathways in IL2RB/IL2RG/IL15/IL15RA four-gene humanized mice were detected by flow cytometry. […] The cells were stained with: Brilliant Violet 421™ anti-mouse NK-1.1 Antibody, APC anti-mouse CD4 Antibody, and/or Alexa Fluor 700 anti-mouse CD8a Antibody, and then subjected to flow cytometry analysis.

[1] = IL2RB/IL2RG/IL15/IL15RA four-gene humanized homozygous mice (H/H)

B1: mIL2: Biotinylated Mouse IL-2 Protein, purchased from Kactus Biosystems (protein, UniProt P04351 21-169, looked up)
Interleukin-2: APTSSSTSSSTAEAQQQQQQQQQQQQHLEQLLMDLQELLSRMENYRNLKLPRMLTFKFYLPKQATELKDLQCLEDELGPLRHVLDLTQSKSFQLEDAENFISNIRVTVVKLKGSDNTFECQFDDESATVVDFLRRWIAFCQSIISTSPQ
modifications: biotinylated
notes: Biotinylated Mouse IL-2 Protein, purchased from Kactus Biosystems
B1 was tested, and the “pSTAT5 expression (CD4+ T cell)” value [1] was 5.3%, the “pSTAT5 expression (CD8a+ cell)” value [1] was 12.5% and the “pSTAT5 expression (NK1.1+ cell)” value [1] was 70.7%. For the same molecule, the “phosphorylated expression of STAT5 after stimulation (in words)” value (splenocytes of +/+ and four-gene humanized homozygous (H/H) mice, 10 μg/mL) was “phosphorylated expression of STAT5 was detected”, the “pSTAT5 expression (CD4+ T cell)” value (wild-type C57BL/6 mice (+/+)) was 16.6% and the “pSTAT5 expression (CD8a+ cell)” value (wild-type C57BL/6 mice (+/+)) was 89.9%. For the same molecule, the “pSTAT5 expression (NK1.1+ cell)” value (wild-type C57BL/6 mice (+/+)) was 41.6%.

— patent US20250302016A1, “GENETICALLY MODIFIED NON-HUMAN ANIMAL WITH HUMAN OR CHIMERIC GENES” (Biocytogen Pharmaceuticals (Beijing) Co., Ltd., priority 2022, published 2025)
